{"source": "patent US20030049702", "key": {"[1]": {"target": "T1, in vitro translated FADD (from pcDNA3-Flag-FADD), Q13158", "T1 chain": "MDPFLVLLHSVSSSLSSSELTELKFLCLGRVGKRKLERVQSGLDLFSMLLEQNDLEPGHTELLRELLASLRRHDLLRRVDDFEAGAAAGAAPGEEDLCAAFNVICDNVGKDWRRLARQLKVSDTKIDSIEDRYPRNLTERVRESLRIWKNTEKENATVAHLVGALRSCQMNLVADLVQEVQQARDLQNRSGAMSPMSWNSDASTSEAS"}}}
{"protein": "in vitro translated pro-Casp8 (from pcDNA3Flag-pro-Casp8) (protein) MDFSRNLYDIGEQLDSEDLASLKFLSLDYIPQRKQEPIKDALMLFQRLQEKRMLEESNLSFLKELLFRINRLDLLITYLNTRKEEMERELQTPGRAQISAYRVMLYQISEEVSRSELRSFKFLLQEEISKCKLDDDMNLLDIFIEMEKRVILGEGKLDILKRVCAQINKSLLKIINDYEEFSKERSSSLEGSPDEFSNGEELCGVMTISDSPREQDSESQTLDKVYQMKSKPRGYCLIINNHNFAKAREKVPKLHSIRDRNGTHLDAGALTTTFEELHFEIKPHDDCTVEQIYEILKIYQLMDHSNMDCFICCILSHGDKGIIYGTDGQEAPIYELTSQFTGLKCPSLAGKPKVFFIQACQGDNYQKGIPVETDSEEQPYLEMDLSSPQTRYIPDEADFLLGMATVNNCVSYRNPAEGTWYIQSLCQSLRERCPRGDDILTILTEVNYEVSNKDDKKNMGKQMPQPTFTLRKKLVFPSD", "values": [{"measurement": "caspase-8 activity (cleavage of Ac-IETD-AFC) in vitro", "setting": "DAP3-His6", "result": "increased protease activity by ˜5-fold"}, {"measurement": "caspase-8 activity (cleavage of Ac-IETD-AFC) in vitro, DAP3 and FADD added together", "setting": "DAP3-His6", "result": "˜10-fold increase in caspase-8 activity"}, {"measurement": "caspase-8 activity (cleavage of Ac-IETD-AFC) in vitro", "setting": "[1]", "result": "˜3-fold increase in caspase-8 activity"}]}
